Laboratory results taken from patent publication US20240058465A1 (SUTRO BIOPHARMA, published 2024).
Numbering of substitutions follows the chain as printed. Read-outs that look alike come from different tables or passages of the source.

How the values were obtained:
[1] = target: T1, human ROR1 (hROR1) (human, UniProt Q01973 30-937); experiment: flow cytometry, HCT116-hROR1 cells; NSB = non-saturating binding
T1 construct: On HCT116-hROR1 transfectants, Mino cells or Ntera-2 cells, as the assay of each row says; also called receptor tyrosine kinase like orphan receptor 1

[2] = target: ROR1 (recombinant protein coated on the ELISA plate, Example 11) (UniProt Q01973 30-403, limits assumed); experiment: ELISA: ROR1 coated on the plate, antibody titrated 3-fold from 5 ug/mL, HRP anti-human Fc, chemiluminescence (ELISA RLU)
Description: The anti-ROR1 lead antibodies were discovered from a Fab ribosome display library that contained CDR H1, H2, and H3 diversity and utilized a constant LC (trastuzumab LC). In this example, the HCs of the lead antibodies were co-expressed with trastuzumab LC or different LCs derived from anti-CD3 antibodies: hOKT3-LC1, hSP34-LC3, hUCHT1-LC3 to determine if the anti-ROR1 HC leads would retain binding to ROR1 when assembled with anti-CD3 LCs. […] The antibodies were then purified and tested for ROR1 binding by ELISA. The ELISA assay was carried out as follows. Briefly, 2 μg/mL of ROR1 was coated to a 384-well polystyrene plate for 1 hr at 30° C. in 0.1 M bicarbonate pH8.9 buffer before it was washed and blocked with 2% BSA in PBST (PBS, 0.1% Tween20) for 1 hr. Antibody variants were diluted to 5 μg/mL and further serially diluted 3-fold before 30 μL was applied to the ELISA plates for binding ([…] Antibody binding was detected via HRP-conjugated anti-human Fc antibodies (Jackson Immunoresearch) and detection with SuperSignal ELISA Pico Chemiluminescent Substrate (Pierce).

[3] = target: T2, human ROR1 Frizzled domain (Fz, residues 165-305) with C-terminal HIS6 tag (human, UniProt Q01973 165-305); experiment: SPR (Biacore T200), IgG captured by anti-human Fc, ROR1 Fz as analyte, 1:1 Langmuir fit
T2 construct: Made in HEK293 cells and purified (Acro Biosystems); also called ROR1 Fz; hROR1-Fz
Method: (§1) The data was fit with the Biacore™ T200 Evaluation software, using a 1-1 Langmuir binding model. KD (affinity, nM) was determined as a ratio of the kinetic rate constants calculated from the fits of the association and dissociation phases.

[4] = target: T1, human ROR1 (hROR1); experiment: cell-based or functional assay
[5] = target: T3, human ROR1 extracellular domain (human, UniProt Q01973 30-406); experiment: SPR (Biacore T200), IgG captured by anti-human Fc, ROR1 ECD as analyte, 1:1 Langmuir fit
T3 construct: Bought recombinant protein (Acro Biosystems); also called ROR1 ECD; hROR1
Method: as §1

[6] = target: T4, receptor tyrosine kinase orphan receptor 1 (ROR1) on Ntera-2 cells (human, UniProt Q01973 30-937); experiment: cell-based or functional assay
[7] = target: T4, receptor tyrosine kinase orphan …; experiment: cell-based or functional assay; remark: listed apart in the source

B1: SRP2193-A01 (antibody, IgG1, V domains shown)
VH: EVQLVESGGGLVQPGGSLRLSCAASGFNINDHYIHWVRQAPGKGLEWVGAIDPTSGSTVFADSVKGRFTISADTSKNTAYLQMNSLRAEDTAVYYCARSRWFRVLWSYVFDYWGQGTLVTVSS
VL: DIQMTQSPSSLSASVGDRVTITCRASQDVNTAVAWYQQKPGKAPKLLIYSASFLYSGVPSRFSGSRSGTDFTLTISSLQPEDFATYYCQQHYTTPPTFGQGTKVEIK
notes: His/FLAG-tagged IgG1, cell-free
binding result [1]: binds

B2: SRP2193-A09 (antibody, IgG1, V domains shown)
VH: B1 VH with N30G, D31K, Y33H, A50V, T54K, S55G, F60Y, F102S
VL: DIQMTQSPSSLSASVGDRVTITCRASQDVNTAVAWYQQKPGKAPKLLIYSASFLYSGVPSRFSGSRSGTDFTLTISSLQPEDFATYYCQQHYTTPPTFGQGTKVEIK
notes: His/FLAG-tagged IgG1, cell-free; also called Antibody 94
binding result [1]: binds

B3: SRP2193-A10 (antibody, IgG1, V domains shown)
VH: B1 VH with N30G, H32Y, T54K, S57Y, F60Y
VL: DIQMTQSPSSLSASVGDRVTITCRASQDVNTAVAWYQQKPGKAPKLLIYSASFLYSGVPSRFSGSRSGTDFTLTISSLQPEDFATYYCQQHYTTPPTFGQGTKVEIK
notes: His/FLAG-tagged IgG1, cell-free; also called Antibody 95
binding result [1]: binds

B4: SRP2193-A05 (antibody, IgG1, V domains shown)
VH: B1 VH with N30K, D31G, H32Y, G49S, A50V, T54N, V59I, F110L
VL: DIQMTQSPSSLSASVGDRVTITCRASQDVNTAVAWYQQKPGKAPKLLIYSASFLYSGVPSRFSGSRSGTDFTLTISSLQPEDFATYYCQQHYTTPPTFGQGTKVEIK
notes: His/FLAG-tagged IgG1, cell-free; also called Antibody 116
binding result [1]: binds

B5: SRP2193-A07 (antibody, IgG1, V domains shown)
VH: B1 VH with D31A, H32S, Y33D, E46G, T54N, S55T, S57T, V59N, F60Y
VL: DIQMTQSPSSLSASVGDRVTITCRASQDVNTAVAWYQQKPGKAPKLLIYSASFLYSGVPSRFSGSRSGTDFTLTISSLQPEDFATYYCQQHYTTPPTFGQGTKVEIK
notes: His/FLAG-tagged IgG1, cell-free; also called Antibody 97
binding result [1]: binds

B6: SRP2193-A04 (antibody, IgG1, V domains shown)
VH: B1 VH with N30I, D31S, H32Y, T54N, V59L, F60L, F110Y
VL: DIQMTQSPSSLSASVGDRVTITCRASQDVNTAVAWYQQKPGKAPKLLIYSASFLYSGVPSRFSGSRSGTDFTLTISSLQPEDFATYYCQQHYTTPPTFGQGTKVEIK
notes: as for B1
binding result [1]: binds

B7: SRP2193-A11 (antibody, IgG1, V domains shown)
VH: B1 VH with N30D, D31A, H32Y, T54K, F60Y, I70T
VL: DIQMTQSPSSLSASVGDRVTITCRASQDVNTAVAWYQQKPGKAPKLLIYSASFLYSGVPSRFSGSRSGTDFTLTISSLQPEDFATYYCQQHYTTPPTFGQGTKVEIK
notes: His/FLAG-tagged IgG1, cell-free; also called Antibody 110
binding result [1]: binds

B8: SRP2193-A02 (antibody, IgG1, V domains shown)
VH: B1 VH with N30H, D31A, H32S, T54K, V59Y, F60Y, F102L, V109I
VL: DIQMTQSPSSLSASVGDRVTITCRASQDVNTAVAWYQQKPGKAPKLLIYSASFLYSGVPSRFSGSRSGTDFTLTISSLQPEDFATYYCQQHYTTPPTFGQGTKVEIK
notes: His/FLAG-tagged IgG1, cell-free; also called Antibody 83
binding result [1]: binds

B9: SRP2193-A03 (antibody, IgG1, V domains shown)
VH: B1 VH with N30A, D31N, H32Y, Y33H, T54K, F60H, F102S, S107T
VL: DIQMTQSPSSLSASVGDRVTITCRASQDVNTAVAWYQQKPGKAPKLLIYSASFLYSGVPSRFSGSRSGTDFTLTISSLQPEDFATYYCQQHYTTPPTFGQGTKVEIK
notes: as for B1
binding result [1]: binds

B10: SRP2193-A08 (antibody, IgG1, V domains shown)
VH: B1 VH with N30I, H32S, T54N, S55A, F60Y, K65R, L81I
VL: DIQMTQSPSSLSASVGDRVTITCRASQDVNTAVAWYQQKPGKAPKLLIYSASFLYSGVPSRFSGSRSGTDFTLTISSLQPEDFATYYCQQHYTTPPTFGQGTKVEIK
notes: His/FLAG-tagged IgG1, cell-free; also called Antibody 112
binding result [1]: binds

B11: SRP2193-A06 (antibody, IgG1, V domains shown)
VH: B1 VH with D31A, H32Y, G49D, T54D, V59H, F60N, V109I
VL: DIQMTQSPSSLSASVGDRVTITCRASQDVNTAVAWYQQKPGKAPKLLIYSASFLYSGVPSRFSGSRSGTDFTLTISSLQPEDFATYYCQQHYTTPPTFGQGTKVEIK
notes: His/FLAG-tagged IgG1, cell-free; also called Antibody 85
binding result [1]: binds

B12: 1944-A07 HC with Trastuzumab LC (antibody, IgG1, V domains shown)
VH: EVQLVESGGGLVQPGGSLRLSCAASGFNITGYYIHWVRQAPGKGLEWVGYISPNSGSTYYADSVKGRFTISADTSKNTAYLQMNSLRAEDTAVYYCARDSRRYVRPFDYWGQGTLVTVSS
VL: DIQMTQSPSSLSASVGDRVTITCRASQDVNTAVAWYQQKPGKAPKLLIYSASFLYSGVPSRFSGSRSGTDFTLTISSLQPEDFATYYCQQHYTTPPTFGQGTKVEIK
notes: Screening constructs are described as His- and FLAG-tagged IgG1; also called SRP1944-A07
EC50 (read off the curve) [2]: ~0.02 µg/mL
Kd [3]: 9.59 nM
koff [3]: 0.029 s⁻¹
kon [3]: 3.02e+06 M⁻¹ s⁻¹

B13: 1944-A07 HC co-expressed with hUCHT1-LC3 light chain (antibody, V domains shown)
VH: B12 VH
VL: DIQMTQSPSTLSASVGDRVTITCRASQDIRNYLNWYQQKPGKAPKLLIYYTSRLHSGVPSRFSGSGSGTEYTLTISSLQPDDFATYYCQQGNTLPWTFGGGTKVEIK
notes: Only variable domains are tied to this pairing
EC50 (read off the curve) [2]: ~0.02 µg/mL

B14: 1944-A07 HC with hUCHT1-LC3 light chain (antibody, V domains shown)
VH: B12 VH
VL: B13 VL
notes: IgG with an anti-CD3 light chain
Kd [3]: 64.1 nM
koff [3]: 0.119 s⁻¹
kon [3]: 1.85e+06 M⁻¹ s⁻¹

B15: 1944-A07 HC co-expressed with hSP34-LC3 light chain (antibody, IgG1, V domains shown)
VH: B12 VH
VL: QTVVTQEPSLTVSPGGTVTLTCGSSTGAVTSGYYPNWFQQKPGQAPRGLIGGTKFLAPGTPARFSGSLLGGKAALTLSGVQPEDEAEYYCALWYSNRWVFGGGTQLTVTG
notes: as for B13
EC50 (read off the curve) [2]: ~0.05 µg/mL

B16: 1944-A07 HC with hSP34-LC3 light chain (antibody, V domains shown)
VH: B12 VH
VL: B15 VL
notes: as for B14
Kd [3]: 6.35 nM
koff [3]: 0.00228 s⁻¹
kon [3]: 360000 M⁻¹ s⁻¹

B17: Conjugate 1 (2188-D04-Y180/F404-LP1) (antibody, human IgG1, kappa)
heavy: MEVQLVESGGGLVQPGGSLRLSCAASGFNISDYDIHWVRQAPGKGLEWVGGIDPADGSTDYADSVKGRFTISADTSKNTAYLQMNSLRAEDTAVYYCARDYGVYDYWGQGTLVTVSSASTKGPSVFPLAPSSKSTSGGTAALGCLVKDYFPEPVTVSWNSGALTSGVHTFPAVLQSSGLSLSSVVTVPSSSLGTQTYICNVNHKPSNTKVDKKVEPKSCDKTHTCPPCPAPELLGGPSVFLFPPKPKDTLMISRTPEVTCVVVDVSHEDPEVKFNWYVDGVEVHNAKTKPREEQYNSTYRVVSVLTVLHQDWLNGKEYKCKVSNKALPAPIEKTISKAKGQPREPQVYTLPPSREEMTKNQVSLTCLVKGFYPSDIAVEWESNGQPENNYKTTPPVLDSDGSFLYSKLTVDKSRWQQGNVFSCSVMHEALHNHYTQKSLSLSPGK
light: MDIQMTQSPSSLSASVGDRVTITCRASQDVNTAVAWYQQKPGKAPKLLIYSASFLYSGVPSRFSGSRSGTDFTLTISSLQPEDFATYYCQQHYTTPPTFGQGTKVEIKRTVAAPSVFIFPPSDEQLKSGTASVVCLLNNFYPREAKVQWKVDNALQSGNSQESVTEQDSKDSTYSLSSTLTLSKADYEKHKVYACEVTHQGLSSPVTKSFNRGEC
modifications: pAMF at HC-Y180 and HC-F404 (the * of the entry), conjugated to LP1 (DBCO-Valcit-pAB-hemiasterlin)
cell killing on ROR1 positive NTERA-2 cells, EC50 [4]: > 10 nM
cell killing on ROR1 positive NTERA-2 cells, Span [4]: < 20%

B18: Conjugate 2 (2188-D04-Y180/F404/K42-LP1) (antibody, human IgG1, kappa)
heavy: B17 heavy
light: MDIQMTQSPSSLSASVGDRVTITCRASQDVNTAVAWYQQKPGAPKLLIYSASFLYSGVPSRFSGSRSGTDFTLTISSLQPEDFATYYCQQHYTTPPTFGQGTKVEIKRTVAAPSVFIFPPSDEQLKSGTASVVCLLNNFYPREAKVQWKVDNALQSGNSQESVTEQDSKDSTYSLSSTLTLSKADYEKHKVYACEVTHQGLSSPVTKSFNRGEC
modifications: pAMF at LC-K42 (the * of the entry), conjugated to LP1; pAMF at HC-Y180 and HC-F404 (the * of the entry), conjugated to LP1
cell killing on ROR1 positive NTERA-2 cells, EC50 [4]: 0.082 nM
cell killing on ROR1 positive NTERA-2 cells, Span [4]: 49%

B19: Conjugate 4 (2188-D04-Y180/F404/K42/E161-LP1) (antibody, human IgG1, kappa)
heavy: B17 heavy
light: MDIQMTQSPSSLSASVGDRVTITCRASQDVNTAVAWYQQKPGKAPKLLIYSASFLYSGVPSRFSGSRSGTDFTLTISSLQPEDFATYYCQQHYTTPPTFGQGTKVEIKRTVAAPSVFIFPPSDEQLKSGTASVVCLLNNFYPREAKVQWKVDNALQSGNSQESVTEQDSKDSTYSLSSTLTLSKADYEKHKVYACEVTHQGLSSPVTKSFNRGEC
modifications: pAMF in place of LC-K42 and LC-E161 (Kabat numbering), conjugated to LP1; pAMF at HC-Y180 and HC-F404 (the * of the entry), conjugated to LP1
cell killing on ROR1 positive NTERA-2 cells, EC50 [4]: 0.022 nM
cell killing on ROR1 positive NTERA-2 cells, Span [4]: 63%

B20: Conjugate 7 (2188-D04-Y180/F404/K42/E161-LP10) (antibody, human IgG1, kappa)
heavy: B17 heavy
light: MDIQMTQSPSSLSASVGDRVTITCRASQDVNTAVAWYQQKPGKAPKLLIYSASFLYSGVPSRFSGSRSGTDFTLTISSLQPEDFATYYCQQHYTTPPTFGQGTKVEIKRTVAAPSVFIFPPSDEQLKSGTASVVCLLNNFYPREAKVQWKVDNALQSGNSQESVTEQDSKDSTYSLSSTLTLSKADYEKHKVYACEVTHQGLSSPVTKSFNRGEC
modifications: pAMF in place of LC-K42 and LC-E161 (Kabat numbering), conjugated to LP10; pAMF at HC-Y180 and HC-F404 (the * of the entry), conjugated to LP10
cell killing on ROR1 positive NTERA-2 cells, EC50 [4]: 0.048 nM
cell killing on ROR1 positive NTERA-2 cells, Span [4]: 94%

B21: Conjugate 6 (2188-D04-Y180/F404-LP10) (antibody, human IgG1, kappa)
heavy: B17 heavy
light: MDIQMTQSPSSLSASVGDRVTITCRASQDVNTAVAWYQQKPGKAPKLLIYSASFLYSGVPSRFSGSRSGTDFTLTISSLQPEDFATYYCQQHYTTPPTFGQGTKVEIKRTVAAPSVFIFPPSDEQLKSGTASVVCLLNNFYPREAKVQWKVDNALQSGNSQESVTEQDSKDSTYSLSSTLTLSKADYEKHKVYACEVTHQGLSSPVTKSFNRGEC
modifications: pAMF at HC-Y180 and HC-F404 (the * of the entry), conjugated to LP10 (DBCO-PEG4-GGFG-aminol-Dxd)
cell killing on ROR1 positive NTERA-2 cells, EC50 [4]: 0.08 nM
cell killing on ROR1 positive NTERA-2 cells, Span [4]: 53%

B22: 1987-C05 HC with hUCHT1-LC3 light chain (antibody, V domains shown)
VH: EVQLVESGGGLVQPGGSLRLSCAASGFNISDYDIHWVRQAPGKGLEWVGGIDPDDGSTDYADSVKGRFTISADTSKNTAYLQMNSLRAEDTAVYYCARDYGVFDYWGQGTLVTVSS
VL: B13 VL
notes: IgG with an anti-CD3 light chain; also called 1987-C05 HC w/hUCHT1 LC3
Kd [5]: 1.14 nM
koff [5]: 0.000645 s⁻¹
kon [5]: 566000 M⁻¹ s⁻¹

B23: Conjugate 5 (2188-D04-F404-LP8) (antibody, human IgG1, kappa)
heavy: MEVQLVESGGGLVQPGGSLRLSCAASGFNISDYDIHWVRQAPGKGLEWVGGIDPADGSTDYADSVKGRFTISADTSKNTAYLQMNSLRAEDTAVYYCARDYGVYDYWGQGTLVTVSSASTKGPSVFPLAPSSKSTSGGTAALGCLVKDYFPEPVTVSWNSGALTSGVHTFPAVLQSSGLYSLSSVVTVPSSSLGTQTYICNVNHKPSNTKVDKKVEPKSCDKTHTCPPCPAPELLGGPSVFLFPPKPKDTLMISRTPEVTCVVVDVSHEDPEVKFNWYVDGVEVHNAKTKPREEQYNSTYRVVSVLTVLHQDWLNGKEYKCKVSNKALPAPIEKTISKAKGQPREPQVYTLPPSREEMTKNQVSLTCLVKGFYPSDIAVEWESNGQPENNYKTTPPVLDSDGSFLYSKLTVDKSRWQQGNVFSCSVMHEALHNHYTQKSLSLSPGK
light: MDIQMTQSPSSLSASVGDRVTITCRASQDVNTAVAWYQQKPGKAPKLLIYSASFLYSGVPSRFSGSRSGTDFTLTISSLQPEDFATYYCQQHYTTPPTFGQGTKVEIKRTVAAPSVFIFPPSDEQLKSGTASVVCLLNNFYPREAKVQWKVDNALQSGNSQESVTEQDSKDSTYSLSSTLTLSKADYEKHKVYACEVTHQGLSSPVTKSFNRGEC
modifications: pAMF at HC-F404 (the * of the entry), conjugated to LP8 (DBCO-GGG-EDA PNU)
cell killing on ROR1 positive NTERA-2 cells, EC50 [4]: 0.0101 nM
cell killing on ROR1 positive NTERA-2 cells, Span [4]: 83%

B24: Conjugate 5 (D04-F404-LP8) (antibody, human IgG1, kappa)
heavy: B23 heavy
light: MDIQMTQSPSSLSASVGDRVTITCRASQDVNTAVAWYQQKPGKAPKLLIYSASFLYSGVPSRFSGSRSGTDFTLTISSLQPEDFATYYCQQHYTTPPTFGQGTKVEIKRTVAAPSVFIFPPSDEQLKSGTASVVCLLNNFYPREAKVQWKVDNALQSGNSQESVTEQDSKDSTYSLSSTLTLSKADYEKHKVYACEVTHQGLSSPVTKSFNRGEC
modifications: pAMF at F404 (EU), linked to LP8
cell killing EC50, NTERA-2 cells [6]: 0.013 nM
cell killing Span, NTERA-2 cells [6]: 83%
cell killing EC50, NTERA-2 cells [7]: 0.021 nM
cell killing Span, NTERA-2 cells [7]: 85%
